In US20210188971A1 (QUIDEL, published 2021):

Biological target: T1, L1-10 fusion protein (human)
T1 construct: also called L1-10, unlabeled; L1-10 antigen
Assay: indirect sandwich luminescence ELISA, L1-10 held by anti-MBP or StrepMAb on RAM
Description: Appropriate diluted standards were prepared along with controls and samples in a Assay Diluent in a separate non-sticky plate. 50 μl or 100 μl of each antibody or antigen (at indicated concentrations) were pipetted to the plate wells. Plates were sealed and incubated for 60 minutes at RT (unless otherwise indicated). The plates were washed with PBST 4×. 50 μl/well of Furimazine substrate was pipetted and incubated for 3 minutes at RT.
The mouse monoclonal antibody served as the anchor for L1-10.

B1: M22_NLuc_HisTag antibody protein (antibody, human IgG1, lambda)
heavy: not shown
light: LTVLTQPPSVSGAPRQRVTISCSGNSSNIGNNAVNWYQQLPGKAPKLLIYYDDQLPSGVSDRFSGSRSGTSASLAIRGLQSEDEADYYCTSWDDSLDSQLFGGGTRLTVLGQPKAAPSVTLFPPSSEELQANKATLVCLISDFYPGAVTVAWKADSSPVKAGVETTTPSKQSNNKYAASSYLSLTPEQWKSHKSYSCQVTHEGSTVEKTVAPTECS
notes: also called M22_Luc; mAb Nluc-His
binding result: binds
